Here are results for 20 molecules from US20200377590A1 (Hoffmann-La Roche, published 2020).

Sequences and labels used below:
T1: CD81 (UniProt P60033 1-236, limits assumed)
T1 construct: whole, on cells; also called CD81 receptor
T1 sequence (looked up): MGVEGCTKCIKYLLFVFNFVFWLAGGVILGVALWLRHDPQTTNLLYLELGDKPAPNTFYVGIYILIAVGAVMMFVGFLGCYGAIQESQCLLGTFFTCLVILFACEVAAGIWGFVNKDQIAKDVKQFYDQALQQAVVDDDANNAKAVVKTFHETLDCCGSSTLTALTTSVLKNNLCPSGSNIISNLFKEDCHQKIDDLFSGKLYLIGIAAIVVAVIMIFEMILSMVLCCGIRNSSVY

B1: CD81K04 HC JA_GG-15-hVH_1_3 / LC GG-05-hVK_3_11 (antibody, V domains shown)
VH: QVQLVQSGAEVKKPGASVKVSCKASGYTFSSSWMNWVRQAPGQRLEWMGRIYSGDGDAIYNGKFKGRVTITADTSASTAYMELSSLRSEDTAVYYCAREGKTGDLLLRSWGQGTLVTVSS
VL: EIVLTQSPATLSLSPGERATLSCRASKSVSTSIYSYLHWYQQKPGQAPRLLIYYASNRETGIPARFSGSGSGTDFTLTISSLEPEDFAVYYCQHSREFPFTFGQGTKLEIK
notes: human constant region
B2: CD81K04 HC GG-02-hVH_1_69 / LC CD81K04 (antibody, V domains shown)
VH: QVQLVQSGAEVKKPGSSVKVSCKASGYTFSSSWMNWVRQAPGQGLEWMGRIYSGDGDAIYNQKFQGRVTITADESTSTAYMELSSLRSEDTAVYYCAREGKTGDLLLRSWGQGTLVTVSS
VL: DIVLTQSPASLSVSLGQRATISCRASKSVSTSIYSYMHWYQQKPGQPPKLLIKYASYLESGVPARFSGSGSGTDFTLNIHPVEEEDAATYYCEHSREFPFTFGTGTKLEIK
notes: human constant region
B3: CD81K04 HC GG-02-hVH_1_69 / LC GG-06-hVK_1_39 (antibody, V domains shown)
VH: QVQLVQSGAEVKKPGSSVKVSCKASGYTFSSSWMNWVRQAPGQGLEWMGRIYSGDGDAIYNQKFQGRVTITADESTSTAYMELSSLRSEDTAVYYCAREGKTGDLLLRSWGQGTLVTVSS
VL: DIQMTQSPSSLSASVGDRVTITCRASKSVSTSIYSYLNWYQQKPGKAPKLLIYYASYLQSGVPSRFSGSGSGTDFTLTISSLQPEDFATYYCQHSREFPYTFGQGTKLEIK
notes: human constant region
B4: CD81K04 HC K04_JA-13-hVH_1_3 / LC GG-06-hVK_1_39 (antibody, V domains shown)
VH: QVQLVQSGAEVKKPGASVKVSCKASGYTFSSSWMNWVRQAPGQRLEWMGRIYSGDGDAIYNGKFKGRVTITRDTSASTAYMELSSLRSEDTAVYYCAREGKTGDLLLRSWGQGTLVTVSS
VL: DIQMTQSPSSLSASVGDRVTITCRASKSVSTSIYSYLNWYQQKPGKAPKLLIYYASYLQSGVPSRFSGSGSGTDFTLTISSLQPEDFATYYCQHSREFPYTFGQGTKLEIK
notes: human constant region
B5: CD81K04 HC JA_GG-16-hVH_1_3 / LC GG-05-hVK_3_11 (antibody, V domains shown)
VH: QVQLVQSGAEVKKPGASVKVSCKASGYTFSSSWMNWVRQAPGQGLEWMGRIYSGDGDAIYNGKFKGRVTITADTSASTAYMELSSLRSEDTAVYYCAREGKTGDLLLRSWGQGTLVTVSS
VL: EIVLTQSPATLSLSPGERATLSCRASKSVSTSIYSYLHWYQQKPGQAPRLLIYYASNRETGIPARFSGSGSGTDFTLTISSLEPEDFAVYYCQHSREFPFTFGQGTKLEIK
notes: human constant region
B6: CD81K04 HC JA_GG-13-hVH_1_69 / LC CD81K04 (antibody, V domains shown)
VH: QVQLVQSGAEVKKPGSSVKVSCKASGGTFSSSWMNWVRQAPGQGLEWMGRIYSGDGDAIYAQKFQGRVTITADESTSTAYMELSSLRSEDTAVYYCAREGKTGDLLLRSWGQGTLVTVSS
VL: DIVLTQSPASLSVSLGQRATISCRASKSVSTSIYSYMHWYQQKPGQPPKLLIKYASYLESGVPARFSGSGSGTDFTLNIHPVEEEDAATYYCEHSREFPFTFGTGTKLEIK
notes: human constant region
B7: CD81K04 HC GG-06-hVH_1_69 / LC CD81K04 (antibody, V domains shown)
VH: QVQLVQSGAEVKKPGSSVKVSCKASGYTFSSSWMCWVRQAPGQGLEWMGCIYSGDGDAIYNQKFQGRVTITADESTSTAYMELSSLRSEDTAVYYCAREGKTGDLLLRSWGQGTLVTVSS
VL: DIVLTQSPASLSVSLGQRATISCRASKSVSTSIYSYMHWYQQKPGQPPKLLIKYASYLESGVPARFSGSGSGTDFTLNIHPVEEEDAATYYCEHSREFPFTFGTGTKLEIK
notes: human constant region
B8: CD81K04 HC JA_GG-13-hVH_1_69 / LC GG-06-hVK_1_39 (antibody, V domains shown)
VH: QVQLVQSGAEVKKPGSSVKVSCKASGGTFSSSWMNWVRQAPGQGLEWMGRIYSGDGDAIYAQKFQGRVTITADESTSTAYMELSSLRSEDTAVYYCAREGKTGDLLLRSWGQGTLVTVSS
VL: DIQMTQSPSSLSASVGDRVTITCRASKSVSTSIYSYLNWYQQKPGKAPKLLIYYASYLQSGVPSRFSGSGSGTDFTLTISSLQPEDFATYYCQHSREFPYTFGQGTKLEIK
notes: human constant region
B9: CD81K04 HC GG-03-hVH_1_69 / LC CD81K04 (antibody, V domains shown)
VH: QVQLVQSGAEVKKPGSSVKVSCKASGYTFSSSWMNWVRQAPGQGLEWMGRIYSGDGDAIYAQKFQGRVTITADESTSTAYMELSSLRSEDTAVYYCAREGKTGDLLLRSWGQGTLVTVSS
VL: DIVLTQSPASLSVSLGQRATISCRASKSVSTSIYSYMHWYQQKPGQPPKLLIKYASYLESGVPARFSGSGSGTDFTLNIHPVEEEDAATYYCEHSREFPFTFGTGTKLEIK
notes: human constant region
B10: CD81K04 HC GG-05-hVH_1_18 / LC GG-06-hVK_1_39 (antibody, V domains shown)
VH: QVQLVQSGAEVKKPGASVKVSCKASGYTFSSSWMNWVRQAPGQGLEWMGRIYSGDGDAIYAQKLQGRVTMTTDTSTSTAYMELRSLRSDDTAVYYCAREGKTGDLLLRSWGQGTLVTVSS
VL: DIQMTQSPSSLSASVGDRVTITCRASKSVSTSIYSYLNWYQQKPGKAPKLLIYYASYLQSGVPSRFSGSGSGTDFTLTISSLQPEDFATYYCQHSREFPYTFGQGTKLEIK
notes: human constant region
B11: CD81K04 HC JA_GG-14-hVH_1_3 / LC GG-06-hVK_1_39 (antibody, V domains shown)
VH: QVQLVQSGAEVKKPGASVKVSCKASGYTFSSSWMNWVRQAPGQGLEWMGRIYSGDGDAIYNGKFKGRATITADTSASTAYMELSSLRSEDTAVYYCAREGKTGDLLLRSWGQGTLVTVSS
VL: DIQMTQSPSSLSASVGDRVTITCRASKSVSTSIYSYLNWYQQKPGKAPKLLIYYASYLQSGVPSRFSGSGSGTDFTLTISSLQPEDFATYYCQHSREFPYTFGQGTKLEIK
notes: human constant region
B12: CD81K04 HC JA_GG-16-hVH_1_3 / LC GG-06-hVK_1_39 (antibody, V domains shown)
VH: QVQLVQSGAEVKKPGASVKVSCKASGYTFSSSWMNWVRQAPGQGLEWMGRIYSGDGDAIYNGKFKGRVTITADTSASTAYMELSSLRSEDTAVYYCAREGKTGDLLLRSWGQGTLVTVSS
VL: DIQMTQSPSSLSASVGDRVTITCRASKSVSTSIYSYLNWYQQKPGKAPKLLIYYASYLQSGVPSRFSGSGSGTDFTLTISSLQPEDFATYYCQHSREFPYTFGQGTKLEIK
notes: human constant region
B13: CD81K04 HC JA_GG-14-hVH_1_69-GA / LC GG-06-hVK_1_39 (antibody, V domains shown)
VH: QVQLVQSGAEVKKPGSSVKVSCKASGYTFSSSWMNWVRQAPGQGLEWMGRIYSGDGDAIYNGKFKGKATITADESTSTAYMELSSLRSEDTAVYYCAREGKTGDLLLRSWGQGTLVTVSS
VL: DIQMTQSPSSLSASVGDRVTITCRASKSVSTSIYSYLNWYQQKPGKAPKLLIYYASYLQSGVPSRFSGSGSGTDFTLTISSLQPEDFATYYCQHSREFPYTFGQGTKLEIK
notes: human constant region
B14: CD81K04 HC GG-04-hVH_1_69 / LC GG-06-hVK_1_39 (antibody, V domains shown)
VH: QVQLVQSGAEVKKPGSSVKVSCKASGYTFSSSWMNWVRQAPGQGLEWMGRIYSGDGDAIYNQKFQGRATITADESTSTAYMELSSLRSEDTAVYYCAREGKTGDLLLRSWGQGTLVTVSS
VL: DIQMTQSPSSLSASVGDRVTITCRASKSVSTSIYSYLNWYQQKPGKAPKLLIYYASYLQSGVPSRFSGSGSGTDFTLTISSLQPEDFATYYCQHSREFPYTFGQGTKLEIK
notes: human constant region
B15: CD81K04 HC K04_JA_GG-17-hVH_1_3 / LC GG-06-hVK_1_39 (antibody, V domains shown)
VH: QVQLVQSGAEVKKPGASVKVSCKASGYTFSSSWMNWVRQAPGQRLEWMGRIYSGDGDTIYSQKFQGRVTITADTSASTAYMELSSLRSEDTAVYYCAREGKTGDLLLRSWGQGTLVTVSS
VL: DIQMTQSPSSLSASVGDRVTITCRASKSVSTSIYSYLNWYQQKPGKAPKLLIYYASYLQSGVPSRFSGSGSGTDFTLTISSLQPEDFATYYCQHSREFPYTFGQGTKLEIK
notes: human constant region
B16: CD81K04 HC GG-04-hVH_1_69 / LC CD81K04 (antibody, V domains shown)
VH: QVQLVQSGAEVKKPGSSVKVSCKASGYTFSSSWMNWVRQAPGQGLEWMGRIYSGDGDAIYNQKFQGRATITADESTSTAYMELSSLRSEDTAVYYCAREGKTGDLLLRSWGQGTLVTVSS
VL: DIVLTQSPASLSVSLGQRATISCRASKSVSTSIYSYMHWYQQKPGQPPKLLIKYASYLESGVPARFSGSGSGTDFTLNIHPVEEEDAATYYCEHSREFPFTFGTGTKLEIK
notes: human constant region
B17: CD81K04 HC GG-03-hVH_1_69 / LC GG-06-hVK_1_39 (antibody, V domains shown)
VH: QVQLVQSGAEVKKPGSSVKVSCKASGYTFSSSWMNWVRQAPGQGLEWMGRIYSGDGDAIYAQKFQGRVTITADESTSTAYMELSSLRSEDTAVYYCAREGKTGDLLLRSWGQGTLVTVSS
VL: DIQMTQSPSSLSASVGDRVTITCRASKSVSTSIYSYLNWYQQKPGKAPKLLIYYASYLQSGVPSRFSGSGSGTDFTLTISSLQPEDFATYYCQHSREFPYTFGQGTKLEIK
notes: human constant region
B18: CD81K04 HC K04_JA-13-hVH_1_3 / LC GG-05-hVK_3_11 (antibody, V domains shown)
VH: QVQLVQSGAEVKKPGASVKVSCKASGYTFSSSWMNWVRQAPGQRLEWMGRIYSGDGDAIYNGKFKGRVTITRDTSASTAYMELSSLRSEDTAVYYCAREGKTGDLLLRSWGQGTLVTVSS
VL: EIVLTQSPATLSLSPGERATLSCRASKSVSTSIYSYLHWYQQKPGQAPRLLIYYASNRETGIPARFSGSGSGTDFTLTISSLEPEDFAVYYCQHSREFPFTFGQGTKLEIK
notes: human constant region
B19: CD81K04 HC JA_GG-15-hVH_1_3 / LC GG-06-hVK_1_39 (antibody, V domains shown)
VH: QVQLVQSGAEVKKPGASVKVSCKASGYTFSSSWMNWVRQAPGQRLEWMGRIYSGDGDAIYNGKFKGRVTITADTSASTAYMELSSLRSEDTAVYYCAREGKTGDLLLRSWGQGTLVTVSS
VL: DIQMTQSPSSLSASVGDRVTITCRASKSVSTSIYSYLNWYQQKPGKAPKLLIYYASYLQSGVPSRFSGSGSGTDFTLTISSLQPEDFATYYCQHSREFPYTFGQGTKLEIK
notes: human constant region
B20: CD81K04 HC JA_GG-14-hVH_1_69 / LC GG-06-hVK_1_39 (antibody, V domains shown)
VH: QVQLVQSGAEVKKPGSSVKVSCKASGYTFSSSWMNWVRQAPGQGLEWMGRIYSGDGDAIYNGKFKGKATITADESTSTAYMELSSLRSEDTAVYYCAREGKTGDLLLRSWGQGTLVTVSS
VL: DIQMTQSPSSLSASVGDRVTITCRASKSVSTSIYSYLNWYQQKPGKAPKLLIYYASYLQSGVPSRFSGSGSGTDFTLTISSLQPEDFATYYCQHSREFPYTFGQGTKLEIK
notes: human constant region

The assay addresses T1, CD81. The assay is described as follows: cell ELISA.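 Also: antibody binding to HuH7 cells expressing CD81 versus a CD81-negative HuH7 control line, bound antibody detected by secondary reagent, absorbance at 450 nm with 620 nm reference.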 On the technique in general: In an ELISA, binding on a coated surface is turned into a signal by an enzyme label.
Experimental: For the binding cell ELISA assay, HuH7-Rluc-H3 (positive cell line expressing CD81) and HuH7-Rluc-L1 (negative control cell line) were propagated in F-12 DMEM medium with 10% FCS at 37° C. and 5% CO₂. On day 1, the cells were trypsinized at approximately 90% confluence and resuspended at 4×10⁵ cells/mL. […] On day 2, the antibody samples to be tested were prepared in a separate polypropylene round bottom plate with a twofold desired concentration with a final volume of 120 μl. All of the assay samples were diluted in cell culture medium. […] After fixation, each well was washed 3 times with 200 μL PBS/0.05% Tween. The secondary incubation step for detection of bound anti-CD81 antibodies was performed for 2 h at room temperature on a reciprocal shaker. […] Each well was washed three times with 200 μL PBS/0.05% Tween to remove unbound antibodies. […] The absorbance was read using the ELISA Tecan reader at 450 nm with 620 nm reference wavelength.
With B1, the ELISA data came out at 0.699.

In the case of B2, the ELISA data stood at 0.918. For B3 the value was 0.08; for B4, 0.064; for B5, 0.631. For the molecule B6, the ELISA data amounted to 0.564.

In turn, B7 displayed an ELISA data of 0.342. Molecule B8 gave an ELISA data of 0.119.

The molecule B9 showed an ELISA data of 0.843. On to B10, for which the ELISA data came out at 0.149.

For B11, the ELISA data was found to be 0.091. B12 came in with an ELISA data of 0.08. For B13, the ELISA data was found to be 0.066. In turn, B14 gave an ELISA data of 0.067. Molecule B15 returned an ELISA data of 0.123. For B16 the value was 0.859.

For the molecule B17, the ELISA data was found to be 0.064. B18: the ELISA data came to 0.56. Regarding B19, the ELISA data is 0.079. B20: the ELISA data stood at 0.091.
